From patent US6808930B1, “Therapeutic agents” (priority 1997, dated 2004)

How the values were obtained:
[1] = tested on: A549 cells; assay: DNA fragmentation by gel electrophoresis and FIGE; type: cell-based, human
Description: (§1) Remaining cells were analysed for DNA fragmentation.

[2] = tested on: HRTEC cells; assay: DNA fragmentation by gel electrophoresis and FIGE; type: cell-based, human; conditions: 4 mg/ml for 24 h
Description: as §1

[3] = tested on: L1210 cells; assay: Nuclear uptake of biotinylated protein, confocal microscopy; type: cell-based, murine
Description: To detect intracellular protein, the cells were fixed at various times after addition of 0.3 mg/ml of biotinylated MAL for 5 min in phosphate-buffered paraformaldehyde (4%) (B. Sander et al., Immunol. Rev. (1991) 119: 65-92) at room temperature, washed in PBS, and permeabilized with 0.1% saponin in PBS. FITC conjugated streptavidin (diluted 1:100 in 0.1% saponin) was added and the cells were incubated for 30 min at room temperature. The cells were washed twice in PBS-saponin and once in PBS, mounted on a glass slide and analysed in a Bio-Rad 1024 laser scanning confocal equipment (Bio Rad Laboratories, Hemel-Hempstead, UK) attached to a Nikon Diaphot inverted microscope.

[4] = tested on: digitonin-permeabilized L1210, A549 and HRTEC cells; assay: Nuclear uptake of biotinylated protein in digitonin-permeabilized cells; type: cell-based; conditions: digitonin treated cells, biotinylated MAL
Description: Briefly, 1×10^6 cells were incubated in 100 μl of nuclear transport buffer (NTB), with the addition of 1 μg/ml each of leupeptin, aprotinin, antipain, and 40 μg/ml of digitonin for 5 min at room temperature and washed by centrifugation at 320×g for 10 min in NTB. Biotinylated protein (5 μl, 5 mg/ml) was added to the cells in a total volume of 100 μl NTB supplemented with phosphcreatin, creatine phosphokinase and ATP, incubated for various time at RT and washed twice in NTB by centrifugation at 320×g for 10 min. The cells were treated with 0.2% Triton-X100 in NTB for 6 min and washed finally 1:100 dilution of fluorescein-conjugated strepatvidin was added for 30 min at RT and washed. The cells were then inspected by fluorescence microscopy in a Nikon Microphot (Japan) microscope or by laser scanning confocal microscopy in a BioRad MRC-1024 instrument.
Digitonin permeabilizes the plasma nembrane, but leaves the nuclear membrane intact. […] Human IgG and monomeric α-lactalbumin were used as controls.
The digitonin-permeabilized L1210 cells were preincubated with 50 μg/ml of WGA for 20 minutes, washed and exposed to biotinylated MAL. IgG and α-lactalbumin were used as controls (FIG. 7).
The cells pretreated with WGA were then washed by centrifugation in NTB at 320×g for 10 min before addition of protein.

[5] = tested on: A549 cells; assay: Subcellular fractionation of cells exposed to 125I-labelled protein; type: cell-based, human
Description: (§2) The intracellular distribution of MAL was further analysed in cells exposed to ^125I-labelled MAL with ^[…] α-lactalbumin and IgG as controls (FIG. 4). Subcellular fractions were prepared after mechanic disruption of the cells and the amount of radiolabelled MAL in each fraction was determined in relation to the total cell-associated radioactivity measured prior to disruption of the cells. Fraction P1 contained mostly cell nuclei, P2 contained plasma-Golgi-, ER-membranes and mitochondria, P3 contained small vesicles and the supernatant. Fraction S contained the cytosolic proteins. The purity of the fractions was determined by quantitation of specific markers (DNA, alkaline phosphatase, RNA and catalase).
(§3) Specifically, cellular subfractionation was performed as described (J. Graham., Isolation of subcellular organelles and membranes., p161-1019. In D. Rickwood ed., Centrifugation, a practical approach, 2nd ed. IRL Press, Washington D.C.). L1210, A549 or HRTEC cells in suspension (3×10^6 cells/ml, 100 μla were incubated with 1×10^6 cpr of ^125I-labelled MAL, ALA or IgG for various times at 37° C. The cells were washed three times with ice-cold PBS and the supernatants were discarded. The cells were suspended in 500 μl of homogenisation buffer (10 mM Tris-HCl, pH 7.8, 5 mM MgCl2 and 2 mM CaCl2 for L1210 cells and 0.15M NaCl, 2 mM EDTA, pH 7.5 for A549 cells), and homogenised by 50 strokes in a Dounce homogenizer (Thomas, Philadelphia, USA) with pestle size 415. Sucrose was added to a final concentration of […] and the homogenate was centrifuged at 100×g for 25 min at RT. The first pellet contained nuclei, large mitochondria and large sheets of plasma membrane. The remaining supernatant was further centrifuged at 12 000×g for 30 min at 4° C. resulting in a second pellet containing mitochondria endoplasmic reticulum, plasma membrane and cytoplasmic organelles. The supernatant was finally centrifuged at 150,000×g for 2 h at 4° C. resulting in a pellet containing small vesicles, endoplasmic reticulum and a supernatant containing cytosolic proteins.

[6] = tested on: HRTEC cells; assay: as above; type: cell-based, human
Description: as §2, §3

[7] = tested on: L1210 cells; assay: as above; type: cell-based, murine
Description: as §2, §3

[8] = tested on: L1210, A549 and HRTEC nuclei; assay: DNA fragmentation in isolated nuclei; type: cell-based
Description: Nuclei were purified from L1210, A549 and HRTEC cells and incubated with low concentrations of MAL (0.2 and 0.4 mg/ml). The formation of HMW and oligonucleosome length DNA fragments was examined.
A549, L1210 and HRTEC nuclei were isolated from homogenised cells. Pellet 1 from the homogenisation was washed twice in nuclei buffer for 20 min at 100×g and suspended in nuclei buffer for experiments. Rat liver nuclei was isolated.
A549, L1210 or HRTEC nuclei in suspension were placed in individual wells in a 24-well plate ([…]), mixed with MAL, α-lactalbumin, lactoferrin or BSA (100 μl in nucleus buffer), incubated at 37° C. for 1 hour (L1210,) or 2 hours (A549 and HRTEC), harvested by aspiration, analysed for DNA fragmentation as described above.

[9] = isolated nuclei from the three cell types, 0.2 and 0.4 mg/ml

B1: MAL: protein complex from human milk casein containing oligomeric forms of α-lactalbumin; the apoptosis-inducing fraction (protein, UniProt P00709 20-142, looked up)
Alpha-lactalbumin: KQFTKCELSQLLKDIDGYGGIALPELICTMFHTSGYDTQAIVENNESTEYGLFQISNKLWCKSSQVPQSRNICDISCDKFLDDDITDDIMCAKKILDIKGIDYWLAHKALCTEKLEQWLCEKL
modifications: oligomeric form from milk casein
notes: protein complex from human milk casein containing oligomeric forms of α-lactalbumin; the apoptosis-inducing fraction
- concentration at which HMW fragmentation was maximal [1]: 1.5 mg/mL
- concentration at which no chromosomal DNA was seen [1]: 2.5 mg/mL
- oligonucleosomal DNA fragmentation [1]: No oligonculeosomal fragmentation was detected
- time at which HMW fragmentation was first detected ([1]; 1.0 mg/ml): 6 h
- HMW DNA fragmentation [2]: did not undergo HMW DNA fragmentation
- cells with nuclear staining ([3]; 0.3 mg/ml biotinylated protein, after about 2 hours (first detected)): about 10%
- cells with nuclear staining ([3]; 0.3 mg/ml, after 1 hour): 10%
- cytoplasmic staining ([3]; biotinylated MAL): Cytoplasmic staining was not observed
- time at which maximum nuclear levels were reached [4]: 20 min
- total cell associated radioactivity ([5]; 24 h, denominator in brackets): 27000
- radioactivity in nuclear fraction (P1) ([5]; 24 h, numerator in brackets): 13700
- radioactivity in cytosolic fraction ([5]; final time-point): 6800 cpm
- radioactivity in pellet 2 ([5]; final time-point): 5100 cpm
- radioactivity in pellet 3 ([5]; final time-point): 1400 cpm
- share of radioactivity in cytosolic fraction ([5]; final time-point): 25%
- share of radioactivity in pellet 2 ([5]; final time-point): 19%
- share of radioactivity in pellet 3 ([5]; final time-point): 5%
- share of total cell associated radioactivity in nuclear fraction (P1) ([6]; 24 h, 125I-labelled): 16%
- total cell associated radioactivity ([6]; 24 h, denominator in brackets): 14000
- radioactivity in nuclear fraction (P1) ([6]; 24 h, numerator in brackets): 2200
- radioactivity in cytosolic fraction ([6]; final time-point): 8600 cpm
- radioactivity in pellet 2 ([6]; final time-point): 2100 cpm
- radioactivity in pellet 3 ([6]; final time-point): 1100 cpm
- share of radioactivity in cytosolic fraction ([6]; final time-point): 61%
- share of radioactivity in pellet 2 ([6]; final time-point): 15%
- share of radioactivity in pellet 3 ([6]; final time-point): 8%
- share of total cell associated radioactivity in nuclear fraction (P1) ([7]; 6 h, 125I-labelled): about 78%
- total cell associated radioactivity ([7]; 6 h, 125I-labelled, denominator in brackets): 44000
- radioactivity in nuclear fraction (P1) ([7]; 6 h, 125I-labelled, numerator in brackets): 34200
- radioactivity in cytosolic fraction ([7]; final time-point): 4500 cpm
- radioactivity in pellet 2 ([7]; final time-point): 4500 cpm
- radioactivity in pellet 3 ([7]; final time-point): 800 cpm
- share of radioactivity in cytosolic fraction ([7]; final time-point): 10%
- share of radioactivity in pellet 2 ([7]; final time-point): 10%
- share of radioactivity in pellet 3 ([7]; final time-point): 2%
- induction of DNA fragmentation in isolated nuclei ([8]; isolated nuclei): could induce DNA fragmentation
- time after which formation of HMW DNA fragments was enhanced [8, 9]: one
- time after which formation of oligonucleosome length fragments was enhanced [8, 9]: 2 h
